System: AHAS minus E. coli
Test: E. coli complementation assay, Arabidopsis AHASL mutants (AE plasmids) with imazethapyr
Format: cell-based
Conditions: colony size scored visually in the presence of imazethapyr
Source text: Vectors AE10 through AE24 were made as follows. The wild type Arabidopsis thaliana AHAS large subunit gene was amplified under mutagenic conditions using the Genemorph II random mutagenesis kit (Stratagene, La Jolla, Calif.), resulting in randomly mutagenized amplified DNA fragments of this gene. This mutant DNA was then cloned back into AE7, replacing the wild type A. thaliana large subunit gene (between the unique SacII and AgeI sites on AE7) with the mutagenized forms. This DNA was transformed into E. coli strain TOP10 and selected on LB agar medium in such a fashion as to have a large number of unique transformants, each with independent, mutagenized AHAS genes. These colonies were scraped together and plasmid DNA was prepared from this entire primary library. This DNA was transformed into AHAS minus E. coli and again selected on LB agar media with carbenicillin. Plasmid positive colonies from this step were replica plated using velveteen onto minimal agar medium without branched chain amino acids and containing 30-micromolar imazethapyr.
The DNA sequence of the A. thaliana AHAS large subunit gene was determined for each of the growth positive colonies. […] Because the AHAS function and imidazolinone tolerance screen was on a secondary library, replicates of the same mutations were found, as determined by DNA sequence analysis. […]

B1: AE7: E. coli expression plasmid, Arabidopsis AHASL wild type (protein, UniProt P17597 56-670, looked up)
Acetolactate synthase, …: SSSPSSISAVLNTTTNVTTTPSPTKPTKPETFISRFAPDQPRKGADILVEALERQGVETVFAYPGGASMEIHQALTRSSSIRNVLPRHEQGGVFAAEGYARSSGKPGICIATSGPGATNLVSGLADALLDSVPLVAITGQVPRRMIGTDAFQETPIVEVTRSITKHNYLVMDVEDIPRIIEEAFFLATSGRPGPVLVDVPKDIQQQLAIPNWEQAMRLPGYMSRMPKPPEDSHLEQIVRLISESKKPVLYVGGGCLNSSDELGRFVELTGIPVASTLMGLGSYPCDDELSLHMLGMHGTVYANYAVEHSDLLLAFGVRFDDRVTGKLEAFASRAKIVHIDIDSAEIGKNKTPHVSVCGDVKLALQGMNKVLENRAEELKLDFGVWRNELNVQKQKFPLSFKTFGEAIPPQYAIKVLDELTDGKAIISTGVGQHQMWAAQFYNYKKPRQWLSSGGLGAMGFGLPAAIGASVANPDAIVVDIDGDGSFIMNVQELATIRVENLPVKVLLLNNQHLGMVMQWEDRFYKANRAHTFLGDPAQEDEIFPNMLLFAAACGIPAARVTKKADLREAIQTMLDTPGPYLLDVICPHQEHVLPMIPSGGTFNDVITEGDGRIKY
E. coli Imazethapyr Tolerance Score: − (IN)

— patent US20150299726A1, “AHAS MUTANTS” (BASF PLANT SCIENCE GMBH, priority 2007, published 2015)
